Assay results taken from paper PMC8674125, “Analysis of Il36a induction by C/EBPβ via a half-CRE•C/EBP element in murine macrophages in dependence of its CpG methylation level”.

B1: FP_CREBmeth (methylated half-CRE•C/EBP Il36a) (dsDNA)
DNA 1: CATCTTACGTCACCT
DNA 2: AGGTGACGTAAGATG
modifications: 5-methyl-C (mC) at position 8 of strand 1 and position 7 of strand 2
B2: FP_CREB (unmethylated half-CRE•C/EBP Il36a) (dsDNA)
DNA 1: CATCTTACGTCACCT
DNA 2: AGGTGACGTAAGATG

Target: C/EBPβ bZIP domain (mouse, UniProt P28033 221-296)
Sequence (P28033 221-296): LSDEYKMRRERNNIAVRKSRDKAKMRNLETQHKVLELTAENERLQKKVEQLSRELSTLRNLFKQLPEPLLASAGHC
Assay: fluorescence polarization; FP: 5 nM DNA, 20 mM Tris-HCl pH 7.5, 150 mM NaCl, 5% glycerol, 0.5 mM TCEP, 0.1 mg/ml BSA, 30 min, temperature not stated; EMSA conditions as in earlier work, not given
Conditions: protein: recombinant; tags: N-terminal 6xHis (pET-45b); chain copies: 2; label: 5'-FAM on strand 1; blunt

Row | Binder | Kd
1 | B1 | 100 ± 30 nM
2 | B2 | 80 ± 30 nM
